± gives the standard deviation of the averaged measurements.

The record followed here is the supplement of paper PMC11246515.

A short description of the data set: total protein half-life in vivo (active degradation + dilution); higher = more stable protein.
[1] abbreviates: E. coli NCM3722 delta-clpP delta-lon delta-hslV, growth: N-lim chemostat, doubling time 6 h.
The mark [2] stands for this setting: E. coli NCM3722 delta-clpP, growth: N-lim chemostat, doubling time 6 h.
[3] abbreviates: E. coli NCM3722 delta-smpB, growth: N-lim chemostat, doubling time 6 h.
[4] abbreviates: wild type E. coli NCM3722, growth: C-lim chemostat, doubling time 3 h.
Where [5] appears, read: wild type E. coli NCM3722, growth: C-lim chemostat, doubling time 12 h.
The mark [6] stands for this setting: wild type E. coli NCM3722, growth: N-lim chemostat, doubling time 6 h.
Setting [7] is: wild type E. coli NCM3722, growth: N-lim chemostat, doubling time 12 h.
[8] abbreviates: wild type E. coli NCM3722, growth: P-lim chemostat, doubling time 6 h.
[9] abbreviates: E. coli NCM3722 delta-hslV, growth: N-lim chemostat, doubling time 6 h.
Where [10] appears, read: E. coli NCM3722 delta-lon, growth: N-lim chemostat, doubling time 6 h.
Where [11] appears, read: wild type E. coli NCM3722, growth: C-lim chemostat, doubling time 6 h.
[12] abbreviates: wild type E. coli NCM3722, growth: P-lim chemostat, doubling time 12 h.

Regarding “MLSPLLKRYTWNSAWLYYARIFIALCGTTAFPWWLGDVKLTIPLTLGMVAAALTDLDDRLAGRLRNLIITLFCFFIASASVELLFPWPWLFAIGLTLSTSGFILLGGLGQRYATIAFGALLIAIYTMLGTSLYEHWYQQPMYLLAGAVWYNVLTLIGHLLFPVRPLQDNLARCYEQLARYLELKSRMFDPDIEDQSQAPLYDLALANGLLMATLNQTKLSLLTRLRGDRGQRGTRRTLHYYFVAQDIHERASSSHIQYQTLREHFRHSDVLFRFQRLMSMQGQACQQLSRCILLRQPYQHDPHFERAFTHIDAALERMRDNGAPADLLKTLGFLLNNLRAIDAQLATIESEQAQALPHNNDENELADDSPHGLSDIWLRLSRHFTPESALFRHAVRMSLVLCFGYAIIQITGMHHGYWILLTSLFVCQPNYNATRHRLKLRIIGTLVGIAIGIPVLWFVPSLEGQLVLLVITGVLFFAFRNVQYAHATMFITLLVLLCFNLLGEGFEVALPRVIDTLIGCAIAWAAVSYIWPDWQFRNLPRMLERATEANCRYLDAILEQYHQGRDNRLAYRIARRDAHNRDAELASVVSNMSSEPNVTPQIREAAFRLLCLNHTFTSYISALGAHREQLTNPEILAFLDDAVCYVDDALHHQPADEERVNEALASLKQRMQQLEPRADSKEPLVVQQVGLLIALLPEIGRLQRQITQVPQETPVSA”, the “total protein half-life in vivo” value is, setting by setting: under setting [1], 5.89 h; under setting [2], 5.69 h; under setting [3], 5.95 ± 0.25 h; under setting [4], 3.21 ± 0.3 h; under setting [5], > 16 h; under setting [6], 5.03 ± 1.3 h. Further, the “total protein half-life in vivo” value runs as follows: under setting [7], 13.4 h; under setting [8], 6.49 ± 0.13 h.

As to “MNAWEVNFDGLVGLTHHYAGLSFGNEASTRHRFQVSNPRLAAKQGLLKMKALADAGFPQAVIPPHERPFIPVLRQLGFSGSDEQVLEKVARQAPHWLSSVSSASPMWVANAATIAPSADTLDGKVHLTVANLNNKFHRSLEAPVTESLLKAIFNDEEKFSVHSALPQVALLGDEGAANHNRLGGHYGEPGMQLFVYGREEGNDTRPSRYPARQTREASEAVARLNQVNPQQVIFAQQNPDVIDQGVFHNDVIAVSNRQVLFCHQQAFARQSQLLANLRARVNGFMAIEVPATQVSVSDTVSTYLFNSQLLSRDDGSMMLVLPQECREHAGVWGYLNELLAADNPISELKVFDLRESMANGGGPACLRLRVVLTEEERRAVNPAVMMNDTLFNALNDWVDRYYRDRLTAADLADPQLLREGREALDVLSQLLNLGSVYPFQREGGGNG”, the “total protein half-life in vivo” value was 4.1 ± 0.25 h under setting [1]; 2.42 ± 0.32 h under setting [2]; 2.8 ± 0.29 h under setting [9]; 2.88 ± 0.035 h under setting [10]; 2.75 ± 0.14 h under setting [3]; 3.06 ± 0.31 h under setting [4]. Moreover, the “total protein half-life in vivo” value came out at 5.17 ± 0.51 h under setting [11]; 8.64 ± 0.32 h under setting [5]; 2.74 ± 0.35 h under setting [6]; 3.749 ± 0.0089 h under setting [7]; 5.69 ± 0.31 h under setting [8]; 9.79 ± 1.5 h under setting [12].

On to “MPQSALFTGIIPPVSTIFTADGQLDKPGTAALIDDLIKAGVDGLFFLGSGGEFSQLGAEERKAIARFAIDHVDRRVPVLIGTGGTNARETIELSQHAQQAGADGIVVINPYYWKVSEANLIRYFEQVADSVTLPVMLYNFPALTGQDLTPALVKTLADSRSNIIGIKDTIDSVAHLRSMIHTVKGAHPHFTVLCGYDDHLFNTLLLGGDGAISASGNFAPQVSVNLLKAWRDGDVAKAAGYHQTLLQIPQMYQLDTPFVNVIKEAIVLCGRPVSTHVLPPASPLDEPRKAQLKTLLQQLKLC”, for which, under setting [9], the “total protein half-life in vivo” value is 3.07 h.

For “MSDDNSHSSDTISNKKGFFSLLLSQLFHGEPKNRDELLALIRDSGQNDLIDEDTRDMLEGVMDIADQRVRDIMIPRSQMITLKRNQTLDECLDVIIESAHSRFPVISEDKDHIEGILMAKDLLPFMRSDAEAFSMDKVLRQAVVVPESKRVDRMLKEFRSQRYHMAIVIDEFGGVSGLVTIEDILELIVGEIEDEYDEEDDIDFRQLSRHTWTVRALASIEDFNEAFGTHFSDEEVDTIGGLVMQAFGHLPARGETIDIDGYQFKVAMADSRRIIQVHVKIPDDSPQPKLDE [P0AE78]”, the “total protein half-life in vivo” value under setting [1] was found to be 5.6 ± 0.81 h; the “total protein half-life in vivo” value under setting [2] worked out at 4.83 ± 0.09 h; the “total protein half-life in vivo” value under setting [9] came out at 5.25 ± 0.99 h; the “total protein half-life in vivo” value under setting [10] was 5.54 ± 0.81 h; the “total protein half-life in vivo” value under setting [3] is 4.73 ± 0.13 h; the “total protein half-life in vivo” value under setting [4] is 2.91 ± 0.18 h. The “total protein half-life in vivo” value under setting [11] turned out to be 5.83 ± 0.67 h; the “total protein half-life in vivo” value under setting [5] is 10 ± 0.62 h; the “total protein half-life in vivo” value under setting [6] came to 4.6 ± 0.091 h; the “total protein half-life in vivo” value under setting [7] stood at 8.26 ± 0.13 h; the “total protein half-life in vivo” value under setting [8] was 5.28 ± 0.17 h; the “total protein half-life in vivo” value under setting [12] amounted to 9.77 ± 1.1 h.

On to “MSDVLRPYRDLFPQIGQRVMIDDSSVVIGDVRLADDVGIWPLVVIRGDVHYVQIGARTNIQDGSMLHVTHKSSYNPDGNPLTIGEDVTVGHKVMLHGCTIGNRVLVGMGSILLDGAIVEDDVMIGAGSLVPQNKRLESGYLYLGSPVKQIRPLSDEEKAGLRYSANNYVKWKDEYLDQGNQTQP [P0A9W9]”, for which the “total protein half-life in vivo” value worked out at 5.73 ± 1.7 h under setting [2]; 5.34 ± 1.1 h under setting [9]; 5.32 ± 0.6 h under setting [10]; 4.72 ± 0.17 h under setting [3]; 3.04 ± 0.14 h under setting [4]; 10 ± 2 h under setting [5]. Further, the “total protein half-life in vivo” value worked out at 5.36 ± 0.53 h under setting [6], 8.69 ± 0.58 h under setting [7], 6.25 ± 0.13 h under setting [8] and 14.3 ± 1.3 h under setting [12].

In the case of “MIGSLTARIFAIFWLTLALVLMLVLMLPKLDSRQMTELLDSEQRQGLMIEQHVEAELANDPPNDLMWWRRLFRAIDKWAPPGQRLLLVTTEGRVIGAERSEMQIIRNFIGQADNADHPQKKKYGRVELVGPFSVRDGEDNYQLYLIRPASSSQSDFINLLFDRPLLLLIVTMLVSTPLLLWLAWSLAKPARKLKNAADEVAQGNLRQHPELEAGPQEFLAAGASFNQMVTALERMMTSQQRLLSDISHELRTPLTRLQLGTALLRRRSGESKELERIETEAQRLDSMINDLLVMSRNQQKNALVSETIKANQLWSEVLDNAAFEAEQMGKSLTVNFPPGPWPLYGNPNALESALENIVRNALRYSHTKIEVGFAVDKDGITITVDDDGPGVSPEDREQIFRPFYRTDEARDRESGGTGLGLAIVETAIQQHRGWVKAEDSPLGGLRLVIWLPLYKRS [P0AE82]”, the “total protein half-life in vivo” value runs as follows: under setting [1], 6.5 ± 0.57 h; under setting [2], 6.88 ± 0.076 h; under setting [10], 5.674 ± 0.024 h; under setting [3], 5.86 ± 0.35 h; under setting [4], 2.971 ± 0.0099 h; under setting [11], 5.92 ± 0.31 h. For the same sequence, the “total protein half-life in vivo” value by setting is: under setting [5], 9.91 ± 1.8 h; under setting [6], 6.07 ± 0.074 h; under setting [7], 12.8 ± 0.79 h; under setting [8], 5.98 ± 0.15 h; under setting [12], 11.8 ± 0.38 h.

On to “MSSRNNPARVAIVMGSKSDWATMQFAAEIFEILNVPHHVEVVSAHRTPDKLFSFAESAEENGYQVIIAGAGGAAHLPGMIAAKTLVPVLGVPVQSAALSGVDSLYSIVQMPRGIPVGTLAIGKAGAANAALLAAQILATHDKELHQRLNDWRKAQTDEVLENPDPRGAA [P0AG18]”, for which the “total protein half-life in vivo” value under setting [1] turned out to be 5.15 ± 0.26 h; the “total protein half-life in vivo” value under setting [2] worked out at 4.94 ± 0.41 h; the “total protein half-life in vivo” value under setting [9] came out at 4.8 ± 0.085 h; the “total protein half-life in vivo” value under setting [10] turned out to be 4.93 ± 0.088 h; the “total protein half-life in vivo” value under setting [3] stood at 4.71 ± 0.3 h; the “total protein half-life in vivo” value under setting [4] was found to be 2.77 ± 0.034 h. For the same sequence, the “total protein half-life in vivo” value by setting is: under setting [11], 5.47 ± 0.46 h; under setting [5], 9.5 ± 0.76 h; under setting [6], 4.67 ± 0.13 h; under setting [7], 6.68 ± 0.46 h; under setting [8], 5.68 ± 0.13 h; under setting [12], 10.9 ± 0.31 h.
